Test results published in patent US20240254219A1 (University of California, published 2024).

Key:
[1] = biological target: T1, human LRP6 (low density lipoprotein receptor-related protein 6), full length on HEK293 cells (human, UniProt O75581 20-1613); assay: flow cytometry titration of 66 IgG on HEK293 cells
T1 construct: whole, on cells; also called wild-type LRP6 (WT); LRP6 full-length
Description: (§1) HEK293 cells were transfected with LRP6 expression plasmid and incubated with 66 or E34N19 scFv-phage for 1 hour. E34N19 was identified previously as a Wnt antagonist binding to the P3E3P4E4 domain (Lee et al., 2018). The E34N19 IgG was simultaneously added as a competitor. Bound phages were detected by sequential incubation of mouse anti-fd IgG and PE-labeled anti-mouse IgG. FIG. 7A is a graph showing the dissociation curve of the 66 antibody. HEK293 cells were incubated with varying concentrations of 66 IgG, and the binding was analyzed by flow cytometry. […] As a positive control, the E34N19E IgG competes with the E34N19E scFv-phage.
(§2) The apparent KD of antibodies was analyzed by FACS as described (Lee et al., 2018). Briefly, cells were trypsinized, washed, and resuspended in FACS buffer (PBS, 1% FBS). Antibodies serially diluted in FACS buffer were incubated with target cells (3×10⁵ cells/tube) overnight at 4° C. Cells were washed, incubated with Alexa Fluor® 647-labeled goat anti-human IgG (Jackson ImmunoResearch). 1 hour post incubation, cells were washed in PBS and analyzed using a BD Accuri C6 flow cytometer (BD Biosciences). Median Fluorescence Intensity (MFI) values were analyzed by curve fitting (GraphPad) to determine the affinity.

[2] = biological target: T1, human LRP6 (low density lipoprotein …); assay: cell-based or functional assay
[3] = biological target: T2, recombinant mouse LRP6 extracellular domain (mouse, UniProt O88572 20-1370); assay: ELISA on recombinant mouse LRP6 extracellular domain
T2 construct: extracellular domain; also called mouse LRP6 ectodomain
T2 sequence (looked up): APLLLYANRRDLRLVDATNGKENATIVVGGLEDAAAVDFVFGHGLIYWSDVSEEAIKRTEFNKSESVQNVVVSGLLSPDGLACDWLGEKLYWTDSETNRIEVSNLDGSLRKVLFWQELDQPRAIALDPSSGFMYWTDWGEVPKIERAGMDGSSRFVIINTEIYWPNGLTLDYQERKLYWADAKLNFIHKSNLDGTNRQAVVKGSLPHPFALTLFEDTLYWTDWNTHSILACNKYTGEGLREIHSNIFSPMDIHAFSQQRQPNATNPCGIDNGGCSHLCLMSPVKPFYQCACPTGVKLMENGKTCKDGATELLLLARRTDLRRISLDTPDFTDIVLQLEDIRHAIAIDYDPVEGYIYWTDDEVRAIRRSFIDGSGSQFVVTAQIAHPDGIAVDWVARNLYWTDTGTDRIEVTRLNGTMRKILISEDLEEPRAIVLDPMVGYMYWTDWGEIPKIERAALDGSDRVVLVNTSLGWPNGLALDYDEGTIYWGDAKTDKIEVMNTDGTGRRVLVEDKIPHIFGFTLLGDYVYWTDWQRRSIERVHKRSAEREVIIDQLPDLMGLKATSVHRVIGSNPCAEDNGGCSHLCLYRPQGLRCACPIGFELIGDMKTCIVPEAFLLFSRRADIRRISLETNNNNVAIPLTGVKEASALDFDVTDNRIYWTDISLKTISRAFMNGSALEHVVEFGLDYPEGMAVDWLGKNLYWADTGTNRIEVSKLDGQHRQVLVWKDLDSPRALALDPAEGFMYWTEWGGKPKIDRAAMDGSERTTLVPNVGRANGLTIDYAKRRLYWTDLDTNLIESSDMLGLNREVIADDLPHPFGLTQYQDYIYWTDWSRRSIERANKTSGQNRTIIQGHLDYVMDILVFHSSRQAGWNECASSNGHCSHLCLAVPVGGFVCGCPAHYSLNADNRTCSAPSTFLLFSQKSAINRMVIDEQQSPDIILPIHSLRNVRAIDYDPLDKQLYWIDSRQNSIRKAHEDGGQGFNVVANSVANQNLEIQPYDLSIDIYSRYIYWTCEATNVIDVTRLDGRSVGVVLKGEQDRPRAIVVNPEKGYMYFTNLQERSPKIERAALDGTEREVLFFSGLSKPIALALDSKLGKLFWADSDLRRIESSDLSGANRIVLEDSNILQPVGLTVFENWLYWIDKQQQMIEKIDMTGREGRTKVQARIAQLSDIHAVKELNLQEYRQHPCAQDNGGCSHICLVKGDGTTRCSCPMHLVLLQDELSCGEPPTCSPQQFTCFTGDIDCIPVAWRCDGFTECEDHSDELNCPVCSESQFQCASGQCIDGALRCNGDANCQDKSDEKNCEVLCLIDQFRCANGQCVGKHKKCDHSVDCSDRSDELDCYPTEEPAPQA

[4] = biological target: T1, human LRP6 (low density lipoprotein …); assay: flow cytometry on HEK293 cells; apparent KD by curve fitting of MFI
Description: as §1, §2

[5] = biological target: T3, LRP6 double mutant (K662A/K684A) on HEK293 cells (human, UniProt O75581 20-1613); assay: flow cytometry on transfected HEK293 cells
T3 construct: whole, on cells; Made by site-directed mutagenesis of the LRP6 construct in pCMV-Entry and transfected into HEK293 cells
Description: FIG. 1F is a graph showing fine epitope mapping by alanine scanning of LRP6 and the effect of the alanine substitutions on binding of the 66 antibody. LRP6 single mutants and the double mutant (K662A/K684A) were separately transfected into HEK293 cells. An anti-LRP6 scFv-Fc fusion that binds to the LRP6-P1 domain was used as a control to confirm cell surface expression of LRP6. Binding of the 66 antibody was determined by flow cytometry, and median fluorescence intensity (MFI) values were normalized against MFI of the P1-binding scFv-Fc.
To map the binding site further, the binding of the 66 antibody to LRP6 was modeled using a homology modeling-predicted structure for the 66 Fv and two known crystal structures of LRP6 (3S8Z and 4A0P: FIGS. 8A and 8B, respectively). Several potential 66 contact sites were identified on LRP6. Alanine scan mutagenesis was performed at those sites. Alanine mutants of LRP6 ectodomain were constructed using QuikChange Site-Directed Mutagenesis Kit (Agilent Technologies) according to the manufacturer's protocol. Binding of the 66 IgG to these LRP6 mutants was analyzed by flow cytometry. K662A and K684A single mutations caused a significant loss of 66 binding (FIG. 1F).

B1: 66 IgG (Wnt-agonist human monoclonal antibody 66) (antibody, V domains shown)
VH: QVQLLQSGGGLVQPGGSLRLSCAASGFTFSTYAMSWVRQAPGKGLEWVSTIGPSGSSTYYAYADSVKGRFTISRDNYKNMLYLQMNSLRAEDTAVYYCAKEGPNSGYFDFDYWGQGTLVTVSS
VL: EIVLTQSPSSLSASVGDRVTITCRASQSISTYLNWYQQKPGKAPKVLIYAASSLQSGVPSRISGSGSGTDFTLTISSLQPEDFATYYCQQSYSIPLTFGGGTKLEIK
notes: also called 66 antibody; agonist 66 IgG
EC50 (read off the curve) [1]: ~5 nM
EC50, STF reporter on HEK293 cells without Wnt ligands [2]: 13.4 nM
EC50, Wnt1-mediated beta-catenin signaling (STF reporter) with RSPO2 (5 nM) [2]: 1.8 nM
EC50, Wnt3a-mediated beta-catenin signaling (STF reporter) with RSPO2 (5 nM) [2]: 4.8 nM
binding result [3]: binds
Kd [4]: ~5 nM
binding result [5]: no binding
